{
  "source": "paper PMC3852661",
  "about": "(2013)",
  "experiment_in_all_cases": "MST",
  "key": {"MBP-SUFU-SH": {"molecular_target": "MBP-SUFU-SH (human, UniProt Q9UMX1 32-278; Q9UMX1 361-483)"}, "MBP-SUFU-FL": {"molecular_target": "T1, MBP-SUFU-FL (human, UniProt Q9UMX1 32-483)", "T1 chain": "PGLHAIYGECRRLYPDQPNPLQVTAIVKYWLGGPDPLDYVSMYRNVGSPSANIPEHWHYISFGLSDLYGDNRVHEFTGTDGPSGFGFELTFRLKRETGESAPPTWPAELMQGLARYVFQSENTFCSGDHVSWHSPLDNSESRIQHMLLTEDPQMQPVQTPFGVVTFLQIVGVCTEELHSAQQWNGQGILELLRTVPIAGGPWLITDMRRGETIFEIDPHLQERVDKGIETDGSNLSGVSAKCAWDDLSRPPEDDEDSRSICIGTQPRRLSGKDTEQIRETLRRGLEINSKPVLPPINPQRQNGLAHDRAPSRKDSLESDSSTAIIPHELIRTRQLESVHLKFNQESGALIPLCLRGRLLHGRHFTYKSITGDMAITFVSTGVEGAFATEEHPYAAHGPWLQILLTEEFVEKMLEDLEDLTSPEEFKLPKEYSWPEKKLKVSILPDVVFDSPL"}, "MBP-SUFU-Δ": {"molecular_target": "T2, MBP-SUFU-Δ (human, UniProt Q9UMX1 32-278; Q9UMX1 361-483)", "T2 chain": "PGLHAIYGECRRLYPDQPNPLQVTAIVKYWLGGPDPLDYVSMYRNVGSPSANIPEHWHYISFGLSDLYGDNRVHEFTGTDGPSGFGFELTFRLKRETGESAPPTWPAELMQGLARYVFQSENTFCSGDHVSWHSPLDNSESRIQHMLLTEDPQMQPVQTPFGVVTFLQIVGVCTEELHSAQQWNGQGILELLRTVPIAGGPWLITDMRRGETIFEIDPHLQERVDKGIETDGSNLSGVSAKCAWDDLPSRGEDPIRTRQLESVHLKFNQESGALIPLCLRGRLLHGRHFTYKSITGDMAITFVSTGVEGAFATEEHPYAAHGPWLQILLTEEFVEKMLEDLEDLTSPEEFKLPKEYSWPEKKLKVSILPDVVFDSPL"}},
  "note": "Where no end group is shown, it is not given here. The star is where a group is joined. 5FAM = O=C1OC2(c3ccc(O)cc3Oc3cc(O)ccc32)c2ccc(C(=O)*)cc21",
  "data": [
    {"binder": "5FAM-TSPGGSYGHLSIGTMSP", "note": "[FAM-GLI1p]", "values": [
      {"measurement": "Kd", "setting": "MBP-SUFU-SH", "value": 4.22, "unit": "µM"},
      {"measurement": "Kd", "setting": "MBP-SUFU-FL", "value": 4.5, "unit": "µM"},
      {"measurement": "Kd", "setting": "MBP-SUFU-Δ", "value": 4.47, "unit": "µM"}
    ]}
  ]
}
